The record followed here is patent publication US5702914, “Use of reporter genes for retinoid receptor screening assays having novel retinoid-associated response elements” (The Salk Institute for Biological Studies).

The target of data set [1] is T1, RAR alpha:RXR alpha heterodimer (Homo sapiens, UniProt P10276;P19793 P10276:1-462,P19793:1-462). The experiment in a line: EMSA; less intense than on DR-5; 74-fold RA induction of TK.Luc(DR2B)2 with both receptors in NT2/D1 cells. Conditions: tags: rabbit reticulocyte lysate (Promega); from pCMX-hRARalpha and pCMX-hRXRalpha; label: 32P. As for the experimental part:
(§1) Aliquots of mRNA were incubated with rabbit reticulocyte lysate (Promega) for in vitro translation. For gel retardation assay, 5 µl of in vitro translated proteins were preincubated in binding buffer (10 mM Tris[pH8.0], 40 mM KCl, 0.05% Nonidet P-40, 6% glycerol, 1 mM DTT, 5 µg/ml poly[dI.dC]) on ice for 15 minutes. For competition assays, 20 fold molar excess of competitor oligonucleotides was mixed at this step. Oligonucleotides containing DR-5 (RARβ2RARE), HOXB DR-2A (nucleotides 30–43 of SEQ ID NO:1) and HOXB DR-2B (nucleotides 41–54 of SEQ ID NO:2) were used as competitors and probes. Subsequently, ^32P-labelled oligonucleotide probes were added to the reaction mixtures and incubated on ice for 15 minutes. The same oligonucleotides used for the construction of luciferase plasmids were used. Reaction mixtures were resolved by 5% polyacrylamide gel electrophoresis in 0.5×TBE. The dried gels were autoradiographed at −70° C.
The ability of RAR and RXR to form either homo- or heterodimers on the HOXB1 DR-2A and DR-2B response elements was examined using gel retardation assays. The expression plasmids pCMX-hRARα and pCMX-hRXRα were linearized with NheI restriction enzyme. Subsequently, capped mRNA was synthesized in vitro using T7 RNA polymerase (Stratagene) according to the manufacturer's instructions. […]

Data set [2] deals with T1, RAR alpha:RXR alpha heterodimer. In words: EMSA; less intense than on DR-5. The note with it: tags: rabbit reticulocyte lysate (Promega); from pCMX-hRARalpha and pCMX-hRXRalpha; label: 32P. As to the method:
as §1, with “Gel retardation assays were carried out according to Kliewer et al. (1992, supra). The plasmids pCMX-hRARα and pCMX-hRXRα (Kliewer et al., 1992, supra) were linearlized and capped mRNA was synthesized in vitro using T7 RNA polymerase (Stratagene) according to manufacturer's instructions. Aliquots” for “Aliquots”
The ability of RAR and RXR to form either homo- or heterodimers on the HOXB1 DR-2A and DR-2B response elements was examined using gel retardation assays. […]
Background: Mobility shift assays separate free from complexed probe on a gel.

T1 sequence (P10276 whole entry, chain 1 of 2): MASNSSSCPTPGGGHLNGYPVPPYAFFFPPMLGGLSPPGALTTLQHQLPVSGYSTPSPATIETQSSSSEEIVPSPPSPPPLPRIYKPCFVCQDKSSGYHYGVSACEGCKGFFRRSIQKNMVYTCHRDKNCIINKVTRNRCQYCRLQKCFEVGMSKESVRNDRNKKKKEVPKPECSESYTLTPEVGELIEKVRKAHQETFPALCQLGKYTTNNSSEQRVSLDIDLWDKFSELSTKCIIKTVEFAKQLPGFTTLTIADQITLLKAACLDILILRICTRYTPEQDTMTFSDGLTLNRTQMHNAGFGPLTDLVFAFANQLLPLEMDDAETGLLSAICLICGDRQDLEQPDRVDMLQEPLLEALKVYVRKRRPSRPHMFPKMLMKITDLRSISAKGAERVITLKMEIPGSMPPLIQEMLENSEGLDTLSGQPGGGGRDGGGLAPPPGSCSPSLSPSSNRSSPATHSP
T1 sequence (P19793 whole entry, chain 2 of 2): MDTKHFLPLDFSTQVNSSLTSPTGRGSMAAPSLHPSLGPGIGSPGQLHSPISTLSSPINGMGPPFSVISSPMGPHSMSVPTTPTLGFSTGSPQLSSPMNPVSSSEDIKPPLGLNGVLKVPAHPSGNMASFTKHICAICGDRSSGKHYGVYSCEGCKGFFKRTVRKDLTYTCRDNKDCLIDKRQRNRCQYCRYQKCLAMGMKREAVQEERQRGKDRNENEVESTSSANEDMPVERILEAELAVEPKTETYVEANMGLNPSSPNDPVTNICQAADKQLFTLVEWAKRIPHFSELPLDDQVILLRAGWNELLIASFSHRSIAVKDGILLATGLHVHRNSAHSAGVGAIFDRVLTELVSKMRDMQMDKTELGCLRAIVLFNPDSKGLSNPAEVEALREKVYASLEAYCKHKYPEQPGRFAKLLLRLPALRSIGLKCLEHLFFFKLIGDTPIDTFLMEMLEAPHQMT

B1: HOXB1 DR-2B (dsDNA)
DNA 1: CGGGCCTGACCTTTTTACCTCGAAG
DNA 2: CTTCGAGGTAAAAAGGTCAGGCCCG
On to B1, for which, in data set [1], the binding result is listed as “binds”.

B2: HOXB1 DR-2A (dsDNA)
DNA 1: TGAACTCTTGCCCT
DNA 2: AGGGCAAGAGTTCA
With B2, the binding result in data set [2] was “binds”.
